Article PMC9765544, “Metabolic Mechanism and Physiological Role of Glycerol 3-Phosphate in Pseudomonas aeruginosa PAO1” (mBio, 2022)

Legend:
[1] = system: O=P(O)(O)OC[C@H](O)CO; assay: purified protein; conditions: 5 mM MgCl2, 50 mM Tris-HCl pH 7.0, bis(cyclohexylammonium) salt
[2] = target: T1, GlpR (Pseudomonas aeruginosa, UniProt Q51391); assay: EMSA, prevention of GlpR binding to glpFK and glpD promoter DNA; conditions: 10 mM G3P (lithium salt), 500 nM GlpR, 3.5 nM DNA probe, pH 7.4, 30 °C; effector (inducer)
T1 construct: recombinant from pETDuet-glpR in E. coli BL21(DE3), HisTrap HP purified
T1 sequence (Q51391 1-251): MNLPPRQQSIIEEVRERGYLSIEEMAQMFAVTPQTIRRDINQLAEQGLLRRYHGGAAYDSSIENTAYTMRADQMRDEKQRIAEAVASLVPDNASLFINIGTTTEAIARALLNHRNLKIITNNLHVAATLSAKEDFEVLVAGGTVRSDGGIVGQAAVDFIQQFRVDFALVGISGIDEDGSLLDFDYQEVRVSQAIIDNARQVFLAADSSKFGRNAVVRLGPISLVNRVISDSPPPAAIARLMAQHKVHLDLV

[3] = substrate: O=P(O)(O)OC[C@H](O)CO; assay: released inorganic phosphate, Michaelis-Menten regression; type: biochemical, Pseudomonas aeruginosa; conditions: 5 mM MgCl2, 50 mM Tris-HCl pH 7.0, bis(cyclohexylammonium) salt

PA3172 (Pseudomonas aeruginosa PAO1)
Km [1]: 5.634 ± 0.209 mM

O=P(O)(O)OC[C@H](O)CO [G3P]
EMSA, prevention of GlpR binding to glpFK and glpD promoter DNA [2]: G3P prevents GlpR binding to the glpFK (D) and glpD (E) promoter regions

B1: PA0562 (Pseudomonas aeruginosa PAO1) (protein)
chain: MPHPIDALISDCDGVLVDSEVIAERVMYEALSAYAPLEELQRLLEGTFGLTSRDILDRVEKHFGLRIPDSFNREVRQRSEEMVAQVQPIPGAREALLALDLPVAVASNSRRHSLERSLARAGLSELIGERLASADMVALPKPAPDVYLHAASLLGVAPERCLVVEDSSTGTRAALAAGMRVIGFVGAGHIPAGHAEVLRELGAIAIVEHMRELPETVARLRRTV
Km [3]: 8.937 ± 1.350 mM
